Reference: the nanobody polyreactivity screen of Harvey et al. (2022)

Test: yeast display, Sf9 membrane polyspecificity reagent, FACS + sequencing; frameworks hold sequencing errors
Outline: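 Nanobodies came from a synthetic yeast display library in Saccharomyces cerevisiae BJ5465, induced with galactose for 36–48 hours and stained for 1 hour at 4 °C with 10% biotinylated, detergent-solubilized Sf9 membrane reagent. Cells were enriched on streptavidin microbeads and then FACS-sorted, with low and high (top ~1%) gates set on anti-HA fluorescence for expression and streptavidin fluorescence for reagent binding. Each polyreactivity label reflects the gate a clone came from. Genes were amplified by colony PCR, sequenced by MiSeq 2 × 250 and filtered by CDR length.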

| Sequence | polyreactivity (PSR sort gate) |
| --- | --- |
| QVQLVESGGGLVQAGGSLRLSCAASGRTFVFYAMGWYIQAPGKERELVASISDGDRTNYADSVKGRFTISRDNAKNTVYLQMNSLKPEDTAVYYCAADREFWWEVVYTYEYYYWGQGTQVTVSS | low polyreactivity |
| QVQLVESGGGLVQAGGSLRLSCAASGRTFVFYAMGWYRQAPGKERELVAAITSSGRTKYADSVKGRFTISRDNAKNTVYLQMNSLKPEDTAVYYCAVLRWPGLDYYWGQGTQVTVSS | high polyreactivity |
| QVQLVESGGGLVQAGGSLRLSCAASGRTFVGNAMGWYRQAPGKEREFVAAITSRTGSTYYADSVKGRFTISRDNAKYTVYLQMNSLKPEDTAVYYCATPYYQNVYSRKAYNYWGQGTQVTVSS | high polyreactivity |
| QVQLVESGGGLVQAGGSLRLSCAASGRTFVGNAMGWYRQAPGKERELVADITWSGDITYYADSVKGRFTISRDNAKNTVYLQKNSLKPEDTAVYYCAADYHRRRTDYDYWGQGTQVTVSS | low polyreactivity |
| QVQLVESGGGLVQAGGSLRLSCAASGRTFVGYAMGWYRQAPGKERELVAAISGSGVRTYYADSVKGRFTISRDNAKNTVYLQMNSLKPEDTAVYYCAVRQGWYNFRYDYWGQGTQVTVSS | high polyreactivity |
| QVQLVESGGGLVQAGGSLRLSCAASGRTFVHNAMGWYRQAPGKERELVAVITSGARTTYADSVKGRFTISRDNAKNTVYLQMNSLKPEDTAVYYCAAGTFSVIFSYKYRHYYYWGQGTQVTVSS | low polyreactivity |
| QVQLVESGGGLVQAGGSLRLSCAASGRTFVINSMGWYRQAPGKERELVAAITWGGGSTYYADSVKGRFTISRDNAKNTVYLQMNSLKPEDTAVYYCATSYSVQYGGSGYYWGQGTQVTVSS | low polyreactivity |
| QVQLVESGGGLVQAGGSLRLSCAASGRTFVKYAMGWYRQAPGKERELVAAISSRGSSTYYADSVKGRFTISRDNAKNTVYLQMNSLKPEETAVYYCNAVYYYNPGYDYWGQGTQVTVSS | high polyreactivity |
| QVQLVESGGGLVQAGGSLRLSCAASGRTFVNNAMGWYRQAPGKERELVAAISQSGSRTYYADSVKRRFTISRDNAKNSVYLQMNSLNTEDTAVYDCAARGARSSTSDDWGQGTQVTVSS | high polyreactivity |
| QVQLVESGGGLVQAGGSLRLSCAASGRTFVNYTMGWYRQAPGKERELVAAIRYRDGSTYYADSVKGRFTISRDNAKNTVYLQMNSLKPEDTAVYYCDTRITQVGDYIYDYWGQGTQGTVSS | low polyreactivity |
| QVQLVESGGGLVQAGGSLRLSCAASGRTFVPYAMGWYRQAPGKEREFVAAISSRVGSTYYADSVKGRFTISRDNAKNTVYLQMNSLKPEDTAVYYCNAPFKPAGFYSAWKYDYWGQGTQVTVSS | low polyreactivity |
| QVQLVESGGGLVQAGGSLRLSCAASGRTFVPYAMGWYRQAPGKERELVAAISSSGGSTYYADSVKGRFTISRDNAKNTVYLQMNSLKPDDTAVYYCAAKSRKGGEYWGQGTQVTVSS | high polyreactivity |
| QVQLVESGGGLVQAGGSLRLSCAASGRTFVPYAMGWYRQAPGKERELVAAISWSSVSTYYADSVKGRFTISRDNAKNTVYLQMNSLKPEDTAVYYCAAEYYTRVAEYYYWGQGTQVTVSS | high polyreactivity |
| QVQLVESGGGLVQAGGSLRLSCAASGRTFVQYVMGWYRQAPGKERELVARISSGGSTFYADSVKGRFTISRDNAKNTVYLQMNSLKPEDTAVYYCAAQWTRYRRRPMDYWGQGTQVTVSS | high polyreactivity |
| QVQLVESGGGLVQAGGSLRLSCAASGRTFVRYAMGWYRQAPGKERELVAAISRTGGTTYYADSVKGRFTISRDNAKNTVYLQMNSLKPEDTAVYYCNADPFYKYGYWGQGTQVTVSS | high polyreactivity |
| QVQLVESGGGLVQAGGSLRLSCAASGRTFVRYAMGWYRQAPGKERELVAAISWSGGSTYYADSVKGRFTISRDNAKNTVYLQMNSLKPEDTAVYYCAADDETPSSHEEDYWGQGTQVTVSS | high polyreactivity |

| Sequence | polyreactivity (PSR sort gate) |
| --- | --- |
| QVQLVESGGGLVQAGGSLRLSCAASGRTFVRYAMGWYRQAPGKERELVAAITRRGGSTYYADSVKGRFTISRDNAKNTVYLQMNSLKPEDTAVYYCNKAVGVTGFDYWGQGTQVTVSS | high polyreactivity |
| QVQLVESGGGLVQAGGSLRLSCAASGRTFVRYAMGWYSQAPGKERELVAAISGIATRTYYADSVKGRFTISRDNAKNTVYLQMNSLKPEDTAVYYCNALYAKYDYWGQGTQVTVSS | high polyreactivity |
| QVQLVESGGGLVQAGGSLRLSCAASGRTFVSNAMGWYRQAPGKERELVAAITQSGGSTYADSVKGRFTISRDNAKNTVYLQLNSLKPEDTAVYYCNSEHAFVGTYYERHDYWGQGTQVTVSS | low polyreactivity |
| QVQLVESGGGLVQAGGSLRLSCAASGRTFVSNAMGWYRQAPGKERELVAGINWTDDSTYYADSVKGRFTISRDNAKNTVYLQINSLKPEDTAVYYCAADSLEFAWPRFDYWGQGTQVTVSS | low polyreactivity |
| QVQLVESGGGLVQAGGSLRLSCAASGRTFVSNDMGWYRQAPGKERELVATISSGASTYYADSVKGRFTISRDNAKNTVYLQMNSLKPEDTAVYYCAAEVLVFGGGYDYWGQGTQVTVSS | low polyreactivity |
| QVQLVESGGGLVQAGGSLRLSCAASGRTFVSYAMGWYRQAPGKERELVAAISGSGGSTYYADSVKGRFTISPDNAKKTGYLQMNSLKPEDTAVYYCHKGRPRKVNSEGFGYWGQGTQVTVSS | high polyreactivity |
| QVQLVESGGGLVQAGGSLRLSCAASGRTFVTNAMGWYRQAPGKERELVAAISGTGGSTYYADSVKGRFTISRDNAKNTVYLQMNSLKPEDTAVYYCNKDYHVRYYYWGQGTLVTVSS | low polyreactivity |
| QVQLVESGGGLVQAGGSLRLSCAASGRTFVTNAMGWYRQAPGKERELVAAISSSGGSTYYADSVKGRFTISRDKAKNTVYLQMNSLKPEDTAVYYCAVGGQTKGQYDYWGQGTQVTVSS | low polyreactivity |
| QVQLVESGGGLVQAGGSLRLSCAASGRTFVTYAMGWYRQAPGKEREFVAAISRNGGSTYYADSVKGRFTISRDNAKNTVYLQMNSLKPEDTAVYYCAAYAYIFLDWGGYPYYLYEYDYWGQGTQVTVSS | low polyreactivity |
| QVQLVESGGGLVQAGGSLRLSCAASGRTFVTYAMGWYRQAPGKEREFVAAITWSTGTSTYYADSVKGRFTISRDNAKNTVYLQMNSLKPEDTAVYYCAVDIWWPTWYYIYWGQGTQVTVSS | low polyreactivity |
| QVQLVESGGGLVQAGGSLRLSCAASGRTFVTYAMGWYRQAPGKEREFVASISSDSGNTYYADSVKGRFTISRDNAKNTLYFQMNSLKPEDTAVYYCARRKVRYWSYPAAHYYWGQGTQVTVSS | low polyreactivity |
| QVQLVESGGGLVQAGGSLRLSCAASGRTFVVNAMGWYRQAPGKEREFVAAISYRGDSTYYADSVKGRFTISRDNAKNTVYLQMNSLKPEDTAVYYCAAQYRYGRYTRDYWGQGTQVTVSS | high polyreactivity |
| QVQLVESGGGLVQAGGSLRLSCAASGRTFVVNAMGWYRQATGKERELVAAITRRGGITYYADSVKGRFTISRDTAKNTVYFQMNSLKPEDTAVLYCAADRSYYPDTRSTYGYNYWGQGTQVTVSS | low polyreactivity |
| QVQLVESGGGLVQAGGSLRLSCAASGRTFVVNVMGWYRQAPGKERELVAAISSVVSTNYADSVKGRFTISRDNAKNTVYLQMNCLKPEDTAVYYCAADVRGAYSTYLYTTTIRYDYWGQGTQVTVSS | low polyreactivity |
| QVQLVESGGGLVQAGGSLRLSCAASGRTFVVYGMGWYRQAPGKERELVATITSGGSTDYADSVKGRFTIARDNAKNTVYLQMNSLKPEDTAVYYCAKETSYTNDDDYWGQGTQVTVSS | low polyreactivity |
| QVQLVESGGGLVQAGGSLRLSCAASGRTFVWNAIGWYRQAPGKERELVDAITSGGSTNYADSVKGRFTISRDNAKNTVYLQMNSLKPEDTAVYYCAADWHYSPRMDYWGQGTLVTVSS | low polyreactivity |
